{
  "source": "the supplement of paper PMC10567573",
  "parents": {"B1": {"name": "KRT71 (parent)", "chain": "ELRNVQDVVEDYKKRYEEEINKRT"}},
  "data": [
    {"variants_of": "B1", "assay": "protein stability index of a GFP-peptide fusion (GPS, HEK-293T) (PSI 1-6); higher = more stable", "details": "c terminus: a fixed tail appended", "values": [
      {"variant": "ELRNVQDVVEDYPKRYEEEINKRT", "note": "[K13P]", "protein stability index": 2.97},
      {"variant": "ELRNVQDVVEDYMKRYEEEINKRT", "note": "[K13M]", "protein stability index": 3.12},
      {"variant": "ELRNVQDVVEDYEKRYEEEINKRT", "note": "[K13E]", "protein stability index": 4.74},
      {"variant": "ELRNVQDVVEDYFKRYEEEINKRT", "note": "[K13F]", "protein stability index": 4.07},
      {"variant": "ELRNVQDVVEDYQKRYEEEINKRT", "note": "[K13Q]", "protein stability index": 3.71},
      {"variant": "ELRNVQDVVEDYIKRYEEEINKRT", "note": "[K13I]", "protein stability index": 3.27},
      {"variant": "ELRNVQDVVEDYRKRYEEEINKRT", "note": "[K13R]", "protein stability index": 4.62},
      {"variant": "ELRNVQDVVEDYWKRYEEEINKRT", "note": "[K13W]", "protein stability index": 3.34},
      {"variant": "ELRNVQDVVEDYNKRYEEEINKRT", "note": "[K13N]", "protein stability index": 3.34},
      {"variant": "ELRNVQDVVEDYYKRYEEEINKRT", "note": "[K13Y]", "protein stability index": 3.2},
      {"variant": "ELRNVQDVVEDYVKRYEEEINKRT", "note": "[K13V]", "protein stability index": 3.25},
      {"variant": "ELRNVQDVVEDYHKRYEEEINKRT", "note": "[K13H]", "protein stability index": 3.73},
      {"variant": "ELRNVQDVVEDYGKRYEEEINKRT", "note": "[K13G]", "protein stability index": 3.93},
      {"variant": "ELRNVQDVVEDYSKRYEEEINKRT", "note": "[K13S]", "protein stability index": 3.51},
      {"variant": "ELRNVQDVVEDYKKRYGEEINKRT", "note": "[E17G]", "protein stability index": 3.1},
      {"variant": "ELRNVQDVVEDYKKRYWEEINKRT", "note": "[E17W]", "protein stability index": 3.87},
      {"variant": "ELRNVQDVVEDYKKRYYEEINKRT", "note": "[E17Y]", "protein stability index": 3.15},
      {"variant": "ELRNVQDVVEDYKKRYMEEINKRT", "note": "[E17M]", "protein stability index": 3.02},
      {"variant": "ELRNVQDVVEDYKKRYDEEINKRT", "note": "[E17D]", "protein stability index": 3.23},
      {"variant": "ELRNVQDVVEDYKKRYCEEINKRT", "note": "[E17C]", "protein stability index": 3.24},
      {"variant": "ELRNVQDVVEDYKKRYLEEINKRT", "note": "[E17L]", "protein stability index": 4.43},
      {"variant": "ELRNVQDVVEDYKKRYSEEINKRT", "note": "[E17S]", "protein stability index": 3.86},
      {"variant": "ELRNVQDVVEDYKKRYKEEINKRT", "note": "[E17K]", "protein stability index": 3.24},
      {"variant": "ELRNVQDVVEDYKKRYIEEINKRT", "note": "[E17I]", "protein stability index": 3.57},
      {"variant": "ELRNVQDVVEDYKKRYAEEINKRT", "note": "[E17A]", "protein stability index": 2.84},
      {"variant": "ELRNVQDVVEDYKKRYFEEINKRT", "note": "[E17F]", "protein stability index": 3.93},
      {"variant": "ELRNVQDVVEDYKKRYREEINKRT", "note": "[E17R]", "protein stability index": 4.12},
      {"variant": "ELRNVQDVVEDYKKRYQEEINKRT", "note": "[E17Q]", "protein stability index": 3.8},
      {"variant": "ELRNVQDVVEDYKKRYVEEINKRT", "note": "[E17V]", "protein stability index": 3.93},
      {"variant": "ELRNVQDVVEDYKKRYTEEINKRT", "note": "[E17T]", "protein stability index": 3.45},
      {"variant": "ELRNVQDVVEDYKKRYNEEINKRT", "note": "[E17N]", "protein stability index": 4.29},
      {"variant": "ELRNVQDVVEDYKVRYEEEINKRT", "note": "[K14V]", "protein stability index": 4.45},
      {"variant": "ELRNVQDVVEDYKMRYEEEINKRT", "note": "[K14M]", "protein stability index": 3.82},
      {"variant": "ELRNVQDVVEDYKTRYEEEINKRT", "note": "[K14T]", "protein stability index": 3.65},
      {"variant": "ELRNVQDVVEDYKGRYEEEINKRT", "note": "[K14G]", "protein stability index": 4.76},
      {"variant": "ELRNVQDVVEDYKYRYEEEINKRT", "note": "[K14Y]", "protein stability index": 3.47},
      {"variant": "ELRNVQDVVEDYKNRYEEEINKRT", "note": "[K14N]", "protein stability index": 3.58},
      {"variant": "ELRNVQDVVEDYKLRYEEEINKRT", "note": "[K14L]", "protein stability index": 2.97},
      {"variant": "ELRNVQDVVEDYKHRYEEEINKRT", "note": "[K14H]", "protein stability index": 4.26},
      {"variant": "ELRNVQDVVEDYKARYEEEINKRT", "note": "[K14A]", "protein stability index": 3.17},
      {"variant": "ELRNVQDVVEDYKERYEEEINKRT", "note": "[K14E]", "protein stability index": 4.51},
      {"variant": "ELRNVQDVVEDYKRRYEEEINKRT", "note": "[K14R]", "protein stability index": 3.51},
      {"variant": "ELRNVQDVVEDYKCRYEEEINKRT", "note": "[K14C]", "protein stability index": 3.3},
      {"variant": "ELRNVQDVVEDYKQRYEEEINKRT", "note": "[K14Q]", "protein stability index": 3.49},
      {"variant": "ELRNVQDVVEDYKKRLEEEINKRT", "note": "[Y16L]", "protein stability index": 4.31},
      {"variant": "ELRNVQDVVEDYKKRHEEEINKRT", "note": "[Y16H]", "protein stability index": 3.75},
      {"variant": "ELRNVQDVVEDYKKRWEEEINKRT", "note": "[Y16W]", "protein stability index": 2.68},
      {"variant": "ELRNVQDVVEDYKKRFEEEINKRT", "note": "[Y16F]", "protein stability index": 2.96},
      {"variant": "ELRNVQDVVEDYKKRPEEEINKRT", "note": "[Y16P]", "protein stability index": 3.82},
      {"variant": "ELRNVQDVVEDYKKRCEEEINKRT", "note": "[Y16C]", "protein stability index": 3.51},
      {"variant": "ELRNVQDVVEDYKKRAEEEINKRT", "note": "[Y16A]", "protein stability index": 4.43},
      {"variant": "ELRNVQDVVEDYKKRNEEEINKRT", "note": "[Y16N]", "protein stability index": 4.1},
      {"variant": "ELRNVQDVVEDYKKRGEEEINKRT", "note": "[Y16G]", "protein stability index": 2.71},
      {"variant": "ELRNVQDVVEDYKKREEEEINKRT", "note": "[Y16E]", "protein stability index": 4.33},
      {"variant": "ELRNVQDVVEDYKKRTEEEINKRT", "note": "[Y16T]", "protein stability index": 3.89},
      {"variant": "ELRNVQDVVEDYKKRREEEINKRT", "note": "[Y16R]", "protein stability index": 3.59},
      {"variant": "ELRNVQDVVEDYKKRMEEEINKRT", "note": "[Y16M]", "protein stability index": 4.22},
      {"variant": "ELRNVQDVVEDYKKRDEEEINKRT", "note": "[Y16D]", "protein stability index": 4.38},
      {"variant": "ELRNVQDVVEDYKKRQEEEINKRT", "note": "[Y16Q]", "protein stability index": 3.52},
      {"variant": "ELRNVQDVVEDYKKRVEEEINKRT", "note": "[Y16V]", "protein stability index": 3.76},
      {"variant": "ELRNVQDVVEDYKKRKEEEINKRT", "note": "[Y16K]", "protein stability index": 3.75},
      {"variant": "ELRNVQDVVEDYKKLYEEEINKRT", "note": "[R15L]", "protein stability index": 4.86},
      {"variant": "ELRNVQDVVEDYKKPYEEEINKRT", "note": "[R15P]", "protein stability index": 4.78},
      {"variant": "ELRNVQDVVEDYKKSYEEEINKRT", "note": "[R15S]", "protein stability index": 3.63},
      {"variant": "ELRNVQDVVEDYKKIYEEEINKRT", "note": "[R15I]", "protein stability index": 4.28},
      {"variant": "ELRNVQDVVEDYKKHYEEEINKRT", "note": "[R15H]", "protein stability index": 2.8},
      {"variant": "ELRNVQDVVEDYKKVYEEEINKRT", "note": "[R15V]", "protein stability index": 3.05},
      {"variant": "ELRNVQDVVEDYKKYYEEEINKRT", "note": "[R15Y]", "protein stability index": 3.43},
      {"variant": "ELRNVQDVVEDYKKTYEEEINKRT", "note": "[R15T]", "protein stability index": 4.68},
      {"variant": "ELRNVQDVVEDYKKNYEEEINKRT", "note": "[R15N]", "protein stability index": 3.48},
      {"variant": "ELRNVQDVVEDYKKFYEEEINKRT", "note": "[R15F]", "protein stability index": 3.67},
      {"variant": "ELRNVQDVVEDYKKKYEEEINKRT", "note": "[R15K]", "protein stability index": 3.22},
      {"variant": "ELRNVQDVVEDYKKAYEEEINKRT", "note": "[R15A]", "protein stability index": 4.63},
      {"variant": "ELRNVQDVVEDYKKMYEEEINKRT", "note": "[R15M]", "protein stability index": 4.38},
      {"variant": "ELRNVQDVVEDYKKQYEEEINKRT", "note": "[R15Q]", "protein stability index": 4.26},
      {"variant": "ELRNVQDVVEDYKKEYEEEINKRT", "note": "[R15E]", "protein stability index": 3.49},
      {"variant": "ELRNVQDVVEDYKKDYEEEINKRT", "note": "[R15D]", "protein stability index": 3.35},
      {"variant": "ELRNVQDVVEDYKKCYEEEINKRT", "note": "[R15C]", "protein stability index": 4.23},
      {"variant": "ELRNVQDVVEDYKKWYEEEINKRT", "note": "[R15W]", "protein stability index": 3.67},
      {"variant": "ELRNVQDVVEDYKKRYECEINKRT", "note": "[E18C]", "protein stability index": 4.57},
      {"variant": "ELRNVQDVVEDYKKRYEAEINKRT", "note": "[E18A]", "protein stability index": 3.54},
      {"variant": "ELRNVQDVVEDYKKRYEPEINKRT", "note": "[E18P]", "protein stability index": 3.98},
      {"variant": "ELRNVQDVVEDYKKRYEIEINKRT", "note": "[E18I]", "protein stability index": 3.07},
      {"variant": "ELRNVQDVVEDYKKRYEFEINKRT", "note": "[E18F]", "protein stability index": 3.42},
      {"variant": "ELRNVQDVVEDYKKRYEGEINKRT", "note": "[E18G]", "protein stability index": 3.16},
      {"variant": "ELRNVQDVVEDYKKRYEQEINKRT", "note": "[E18Q]", "protein stability index": 3.3},
      {"variant": "ELRNVQDVVEDYKKRYENEINKRT", "note": "[E18N]", "protein stability index": 3.31},
      {"variant": "ELRNVQDVVEDYKKRYELEINKRT", "note": "[E18L]", "protein stability index": 2.91},
      {"variant": "ELRNVQDVVEDYKKRYESEINKRT", "note": "[E18S]", "protein stability index": 3.23},
      {"variant": "ELRNVQDVVEDYKKRYEREINKRT", "note": "[E18R]", "protein stability index": 4.26},
      {"variant": "ELRNVQDVVEDYKKRYEDEINKRT", "note": "[E18D]", "protein stability index": 3.48},
      {"variant": "ELRNVQDVVEDYKKRYEWEINKRT", "note": "[E18W]", "protein stability index": 3.11},
      {"variant": "ELRNVQDVVEDYKKRYETEINKRT", "note": "[E18T]", "protein stability index": 3.93},
      {"variant": "ELRNVQDVVEDYKKRYEKEINKRT", "note": "[E18K]", "protein stability index": 3.03}
    ]}
  ]
}
